Experimental data as given in article PMC5790001.
Like-named read-outs stand apart in the source and are kept apart here.

Legend:
[1] = molecular target: CCR5 (human (endogenous in PM1 cells and MDM)) (UniProt P51681)
[2] = molecular target: CCR5 (human (endogenous in PM1 cells and MDM)) (UniProt P51681); remark: listed apart in the source
[3] = molecular target: CCR5 (human (endogenous in PM1 cells and MDM)) (UniProt P51681); remark: listed apart in the source
[4] = molecular target: CCR5 (human (endogenous in PM1 cells and MDM)) (UniProt P51681); remark: listed apart in the source
[5] = molecular target: human CCR5 on CHO-CD4-CCR5 cells (human) (UniProt P51681)

Row | other [1] [pM] | Substance | also measured
1 | 18 | 5p12 E66S (from UniProt P13501 24-91) (ligand) | 
2 | 30 | 5p12 F12Y/A13V (from UniProt P13501 24-91) (ligand) | 
3 | 5.5 | 5p12 F12Y/A13V/Y27W/F28W/E66S (CCL5 5p12 5 m) (L. jensenii) (from UniProt P13501 24-91) (ligand) | 
4 | 17 | 5p12 Y27W (from UniProt P13501 24-91) (ligand) | 
5 | 8.2 | 5p12 Y27W/F28W (from UniProt P13501 24-91) (ligand) | 
6 | 7.7 | 5p12 Y27W/F28W/E66S (from UniProt P13501 24-91) (ligand) | 
7 |  | 5p12-RANTES (E. coli) (from UniProt P13501 24-91) (ligand) | other [2]: 21 pM
8 | 4.7 | 6p4 F12Y/A13V/Y27W/F28W/E66S (CCL5 6p4 5 m) (L. jensenii) (from UniProt P13501 24-91) (ligand) | 
9 |  | 6p4-RANTES (E. coli) (from UniProt P13501 24-91) (ligand) | other [2]: 35 pM
10 | 30 | 6p4-RANTES (L. jensenii) (from UniProt P13501 24-91) (ligand) | 
11 | 833 | C1C5 27W/28 W (from UniProt P13501 24-91) (ligand) | 
12 | 1600 | C1C5 E66S (from UniProt P13501 24-91) (ligand) | 
13 | 3700 | C1C5 Y27W (from UniProt P13501 24-91) (ligand) | 
14 | 640 | C1C5 Y27W/F28W/E66S (from UniProt P13501 24-91) (ligand) | 
15 |  | CCL5 5p12 5 m (E. coli) (from UniProt P13501 24-91) (ligand) | other [2]: 6.1 pM; IC50 of inhibition of HIV-1BaL infection in human monocyte-derived macrophages (MDM); blocks HIV-1 entry through CCR5 [3]: 14.2 pM; IC50 of inhibition of the primary R5 HIV-1 strain 98IN007 (clade C), acute infection assay in PM1 cells; blocks HIV-1 entry through CCR5 [3]: 7.6 pM; IC50 of inhibition of the primary R5 HIV-1 strain 5513 (clade B), acute infection assay in PM1 cells; blocks HIV-1 entry through CCR5 [3]: 15.5 pM
16 |  | CCL5 5p12 5 m (total chemical synthesis) (from UniProt P13501 24-91) (ligand) | IC50 of HIV-1BaL inhibition, acute infection assay, protein from total chemical synthesis; blocks HIV-1 entry through CCR5 [4]: 3.9 pM
17 |  | CCL5 6p4 5 m (E. coli) (from UniProt P13501 24-91) (ligand) | other [2]: 7.9 pM; percent of surface CCR5 internalized, flow cytometry (mAb 3A9) of CHO-CD4-CCR5 cells treated with 100 nM ligand, 4 h, 37 °C [5]: 70%
18 |  | CCL5 6p4 5 m (total chemical synthesis) (from UniProt P13501 24-91) (ligand) | IC50 of HIV-1BaL inhibition, acute infection assay, protein from total chemical synthesis; blocks HIV-1 entry through CCR5 [4]: 3.9 pM

Row | other [1] [pM] | Substance | also measured
19 | 92 | CCL5 A13F (from UniProt P13501 24-91) (ligand) | 
20 | 256 | CCL5 A13M (from UniProt P13501 24-91) (ligand) | 
21 | > 1000 | CCL5 A13P (from UniProt P13501 24-91) (ligand) | 
22 | 86 | CCL5 A13V (from UniProt P13501 24-91) (ligand) | 
23 | 169 | CCL5 A13W (from UniProt P13501 24-91) (ligand) | 
24 | 78 | CCL5 A13Y (from UniProt P13501 24-91) (ligand) | 
25 | 190 | CCL5 E66S (from UniProt P13501 24-91) (ligand) | 
26 | > 1000 | CCL5 F12P (from UniProt P13501 24-91) (ligand) | 
27 | > 6500 | CCL5 F12W (from UniProt P13501 24-91) (ligand) | 
28 | 179 | CCL5 F12Y/A13V (from UniProt P13501 24-91) (ligand) | 
29 | 115 | CCL5 F12Y/A13V/Y27W/F28W (CCL5 4 m) (from UniProt P13501 24-91) (ligand) | 
30 | 34 | CCL5 F12Y/A13V/Y27W/F28W/E66S (CCL5 5 m) (L. jensenii) (from UniProt P13501 24-91) (ligand) | 
31 | 162 | CCL5 F28W (from UniProt P13501 24-91) (ligand) | 
32 | 255 | CCL5 Y27W (from UniProt P13501 24-91) (ligand) | 
33 | 95 | CCL5 Y27W/F28W (from UniProt P13501 24-91) (ligand) | 
34 | 46 | CCL5 Y27W/F28W/E66S (from UniProt P13501 24-91) (ligand) | 
35 |  | wt CCL5 (E. coli) (from UniProt P13501 24-91) (ligand) | IC50 (pM) of HIV-1BaL inhibition, acute infection assay in PM1 cells (p24), protein purified from E. coli; blocks HIV-1 entry through CCR5 [2]: 810 pM; percent of surface CCR5 internalized, flow cytometry (mAb 3A9) of CHO-CD4-CCR5 cells treated with 100 nM ligand, 4 h, 37 °C [5]: 55%
